Numbering of substitutions follows the chain as printed. Several values for one entry are separate records, joined by “and”; a condition that tells them apart may be missing. Equal entries are not always repeated.
B1: 72S (protein, listed as Rattus norvegicus)
chain: AFDGTWKVDRNENYEKFMEKMGINVVKRKLGAHDNLKLTITQEGNKFTVKESSNFRNIDVVFELGVDFAYSSADGTELTGTWTMEGNKLVGKFKRVDNGKELIAVREISGNELIQTYTYEGVEAKRIFKKE
modifications: PEPTIDE (1)...(131) wild-type rat intestinal fatty acid binding protein
B2: 73Q, 72A (protein, listed as Rattus norvegicus)
chain: B1 chain with S72A, A73Q
modifications: PEPTIDE (1)...(131) wild-type rat intestinal fatty acid binding protein
B3: 73P, 72A (protein, listed as Rattus norvegicus)
chain: B1 chain with S72A, A73P
modifications: PEPTIDE (1)...(131) wild-type rat intestinal fatty acid binding protein
B4: 74A, 72A (protein, listed as Rattus norvegicus)
chain: B1 chain with S72A, D74A
modifications: PEPTIDE (1)...(131) wild-type rat intestinal fatty acid binding protein
B5: 73W, 72A (protein, listed as Rattus norvegicus)
chain: B1 chain with S72A, A73W
modifications: PEPTIDE (1)...(131) wild-type rat intestinal fatty acid binding protein
B6: 73E, 72A (protein, listed as Rattus norvegicus)
chain: B1 chain with S72A, A73E
modifications: PEPTIDE (1)...(131) wild-type rat intestinal fatty acid binding protein
B7: 73S, 72A (protein, listed as Rattus norvegicus)
chain: B1 chain with S72A, A73S
modifications: PEPTIDE (1)...(131) wild-type rat intestinal fatty acid binding protein
B8: 73R, 72A (protein, listed as Rattus norvegicus)
chain: B1 chain with S72A, A73R
modifications: PEPTIDE (1)...(131) wild-type rat intestinal fatty acid binding protein
B9: 73K, 72A (protein, listed as Rattus norvegicus)
chain: B1 chain with S72A, A73K
modifications: PEPTIDE (1)...(131) wild-type rat intestinal fatty acid binding protein
B10: 73T, 72A (protein, listed as Rattus norvegicus)
chain: B1 chain with S72A, A73T
modifications: PEPTIDE (1)...(131) wild-type rat intestinal fatty acid binding protein
B11: 73H, 72A (protein, listed as Rattus norvegicus)
chain: B1 chain with S72A, A73H
modifications: PEPTIDE (1)...(131) wild-type rat intestinal fatty acid binding protein
B12: 74L, 72A (protein, listed as Rattus norvegicus)
chain: B1 chain with S72A, D74L
modifications: PEPTIDE (1)...(131) wild-type rat intestinal fatty acid binding protein
B13: 74C, 72A (protein, listed as Rattus norvegicus)
chain: B1 chain with S72A, D74C
modifications: PEPTIDE (1)...(131) wild-type rat intestinal fatty acid binding protein
B14: 73G, 72A (protein, listed as Rattus norvegicus)
chain: B1 chain with S72A, A73G
modifications: PEPTIDE (1)...(131) wild-type rat intestinal fatty acid binding protein
B15: 74Q, 72A (protein, listed as Rattus norvegicus)
chain: B1 chain with S72A, D74Q
modifications: PEPTIDE (1)...(131) wild-type rat intestinal fatty acid binding protein
B16: 72V (protein, listed as Rattus norvegicus)
chain: B1 chain with S72V
modifications: PEPTIDE (1)...(131) wild-type rat intestinal fatty acid binding protein
B17: 73F, 72A (protein, listed as Rattus norvegicus)
chain: B1 chain with S72A, A73F
modifications: PEPTIDE (1)...(131) wild-type rat intestinal fatty acid binding protein
B18: 72Y (protein, listed as Rattus norvegicus)
chain: B1 chain with S72Y
modifications: PEPTIDE (1)...(131) wild-type rat intestinal fatty acid binding protein
B19: 73V, 72A (protein, listed as Rattus norvegicus)
chain: B1 chain with S72A, A73V
modifications: PEPTIDE (1)...(131) wild-type rat intestinal fatty acid binding protein
B20: 73N, 72A (protein, listed as Rattus norvegicus)
chain: B1 chain with S72A, A73N
modifications: PEPTIDE (1)...(131) wild-type rat intestinal fatty acid binding protein
B21: 73L, 72A (protein, listed as Rattus norvegicus)
chain: B1 chain with S72A, A73L
modifications: PEPTIDE (1)...(131) wild-type rat intestinal fatty acid binding protein
B22: 74N, 72A (protein, listed as Rattus norvegicus)
chain: B1 chain with S72A, D74N
modifications: PEPTIDE (1)...(131) wild-type rat intestinal fatty acid binding protein
B23: 104F3, 72A (protein, listed as Rattus norvegicus)
chain: B1 chain with S72A, A104F
modifications: PEPTIDE (1)...(131) wild-type rat intestinal fatty acid binding protein

test: Probe fluorescence ratio response to arachidonic acid relative to ADIFAB2; assay type: binding; conditions: Arachidonic acid; response relative to ADIFAB2
Procedure, shortened: (§1)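 Each fatty acid's response was expressed relative to ADIFAB2, the rI-FABP-L72A probe, as ΔR/ΔRreference. ΔR is the change in the background-corrected two-wavelength intensity ratio R=Fλ1/Fλ2 from its analyte-free baseline R0. Emission was read near about 420-480 nm for unbound and about 495-580 nm for FFA-bound probe.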

Molecule | DR/DR AA
B1 | 0.65
B2 | 1.36
B3 | 0.42
B4 | 1.42
B5 | 1.77
B6 | 0.15
B7 | 1.01
B8 | 0.40
B9 | 0.30
B10 | 0.87
B11 | 0.15
B12 | 0.22
B13 | 0.83
B14 | 0.46
B15 | 0.81
B16 | 0.18
B17 | 1.21
B18 | 0.35
B19 | 0.98
B20 | 0.48
B21 | 0.73
B22 | 1.62

same assay, conditions: arachidonic acid; response relative to ADIFAB2

Molecule | DR/DR AA
B10 | 0.872
B12 | 0.222
B23 | 0.71
B17 | 1.208
B18 | 0.346
B19 | 0.976
B21 | 0.733

test: Probe fluorescence ratio response to linolenic acid relative to ADIFAB2; assay type: binding; conditions: response relative to ADIFAB2
Procedure, shortened: as §1

Molecule | DR/DR LNA
B1 | 0.71
B2 | 1.31
B3 | 0.41
B4 | 1.42
B5 | 1.93
B6 | 0.14
B7 | 1.08
B8 | 0.33
B9 | 0.28
B10 | 0.77 and 0.765
B11 | 0.25
B12 | 0.40 and 0.404
B23 | 0.45
B13 | 0.74
B14 | 0.53
B15 | 0.86
B16 | 0.15
B17 | 1.86 and 1.861
B18 | 0.59 and 0.594
B19 | 0.50 and 0.496
B20 | 0.47
B21 | 0.34 and 0.338
B22 | 1.57

test: Probe fluorescence ratio response to linoleic acid relative to ADIFAB2; assay type: binding; conditions: response relative to ADIFAB2
Procedure, shortened: as §1

Molecule | DR/DR LA
B1 | 0.73
B2 | 1.39
B3 | 0.30
B4 | 1.34
B5 | 1.89
B6 | 0.19
B7 | 1.05
B8 | 0.36
B9 | 0.29
B10 | 0.77 and 0.768
B11 | 0.18
B12 | 0.30 and 0.305
B23 | 0.50
B13 | 0.71
B14 | 0.56
B15 | 0.87
B16 | 0.21
B17 | 1.23 and 1.234
B18 | 0.64 and 0.637
B19 | 0.40 and 0.396
B20 | 0.43
B21 | 0.33 and 0.325
B22 | 1.44

test: Probe fluorescence ratio response to oleic acid relative to ADIFAB2; assay type: binding; conditions: response relative to ADIFAB2
Procedure, shortened: as §1

Molecule | DR/DR OA
B1 | 0.62
B2 | 1.28
B3 | 0.30
B4 | 1.34
B5 | 1.66
B6 | 0.14
B7 | 0.96
B8 | 0.27
B9 | 0.28
B10 | 0.78 and 0.778
B11 | 0.13
B12 | 0.19 and 0.188
B23 | 0.47
B13 | 0.56
B14 | 0.52
B15 | 0.74
B16 | 0.20
B17 | 0.73 and 0.728
B18 | 0.56 and 0.557
B19 | 0.60 and 0.603
B20 | 0.41
B21 | 0.38
B22 | 1.52

test: Probe fluorescence ratio response to palmitic acid relative to ADIFAB2; assay type: binding; conditions: response relative to ADIFAB2
Procedure, shortened: as §1

Molecule | DR/DR PA
B1 | 0.68
B2 | 1.19
B3 | 0.26
B4 | 1.27
B5 | 1.05
B6 | 0.13
B7 | 0.99
B8 | 0.20
B9 | 0.15
B10 | 0.62 and 0.621
B11 | 0.16
B12 | 0.36 and 0.361
B23 | 0.25
B13 | 0.29
B14 | 0.41
B15 | 0.43
B16 | 0.16
B17 | 1.13 and 1.128
B18 | 0.41 and 0.415
B19 | 0.48 and 0.475
B20 | 0.39
B21 | 0.25 and 0.251
B22 | 1.38

Reference: patent publication US20060257938A1, “Method of screening for drugs that block ligand binding to a lipid binding protein” (priority 2005, published 2006)
